B1: human TANGO 268 (glycoprotein VI, GPVI) (receptor)
chain: QSGPLPKPSLQALPSSLVPLEKPVTLRCQGPPGVDLYRLEKLSSSRYQDQAVLFIPAMKRSLAGRYRCSYQNGSLWSLPSDQLELVATGVFAKPSLSAQPGPAVSSGGDVTLQCQTRYGFDQFALYKEGDPAPYKNPERWYRASFPIITVTAAHSGTYRCYSFSSRDPYLWSAPSDPLELVVTGTSVTPSRLPTEPPSSVAEFSEATAELTVSFTNKVFTTETSRSITTSPKESDSPAGPARQYYTKGNLVRICLGAVILIILAGFLAEDWHSRRKRLRHRGRAVQRPLPPLPPLPQTRKSHGGQDGGRQDVHSRGLCS
notes: Full-length protein: in lysates of transfected CHO cells and of human platelets (blots), on transduced U937, K562 and HEL cells, and on human platelets; Signal peptide 1-20 is a SIGNALP prediction; also called hGPVI; rhGPVI
B3: convulxin (Cvx), purified from the venom of Crotalus durissus terrificus (ligand)
chain 1: GLHCPSDWYYYDQHCYRIFNEEMNWEDAEWFCTKQAKGAHLVSIKSAKEADFVAWMVTQNIEESFSHVSIGLRVQNKEKQCSTKWSDGSSVSYDNLLDLYITKCSLLKKETGFRKWFVASCIGKIPFVCKFPPQC
chain 2: GFCCPSHWSSYDRYCYKVFKQEMTWADAEKFCTQQHTGSHLVSFHSTEEVDFVVKMTHQSLKSTFFWIGANNIWNKCNWQWSDGTKPEYKEWHEEFECLISRTFDNQWLSAPCSDTYSFVCKFEA

Tests used:
[1] = molecular target: collagen type I; assay: cell-based or functional assay
[2] = molecular target: B1; assay: flow cytometry, washed human platelets, FITC anti-mouse IgG; negative control
[3] = molecular target: baboon GPVI on baboon platelets (baboon); assay: flow cytometry, washed baboon platelets, FITC anti-mouse IgG; negative control
[4] = molecular target: soluble human GPVI-Fc (extracellular domain of GPVI fused to human IgG1 Fc) (human) (UniProt Q9HCN6); assay: SPR (BIAcore), GPVI-Fc coupled to the chip, bivalent model; negative control
[5] = molecular target: T1, bovine serum albumin (BSA) (UniProt P02769 25-607); assay: adhesion of 51Cr-labelled GPVI-transduced U937 cells to immobilized BSA
T1 construct: Control surface in the cell adhesion assay
T1 sequence (P02769 25-607 limits assumed): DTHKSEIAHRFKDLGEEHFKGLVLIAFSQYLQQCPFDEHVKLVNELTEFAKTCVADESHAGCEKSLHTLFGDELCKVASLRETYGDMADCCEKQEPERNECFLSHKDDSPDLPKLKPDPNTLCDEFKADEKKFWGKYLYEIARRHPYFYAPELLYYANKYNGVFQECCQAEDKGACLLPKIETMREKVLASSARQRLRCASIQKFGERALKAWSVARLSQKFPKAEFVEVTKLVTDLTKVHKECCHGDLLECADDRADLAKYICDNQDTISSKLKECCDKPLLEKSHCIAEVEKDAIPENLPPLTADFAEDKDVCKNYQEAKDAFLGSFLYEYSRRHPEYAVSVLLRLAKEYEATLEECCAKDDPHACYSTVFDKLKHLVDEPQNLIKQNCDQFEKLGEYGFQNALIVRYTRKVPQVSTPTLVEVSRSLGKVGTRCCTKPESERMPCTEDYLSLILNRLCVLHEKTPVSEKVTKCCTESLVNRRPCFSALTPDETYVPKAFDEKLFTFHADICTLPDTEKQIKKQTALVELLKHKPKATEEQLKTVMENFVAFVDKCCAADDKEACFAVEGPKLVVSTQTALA

[6] = molecular target: B3; assay: ligand blot with 125I-Cvx on lysates of transfected CHO cells and of platelets
[7] = molecular target: B3; assay: flow cytometry, FITC-Cvx
[8] = molecular target: T1, bovine serum albumin (BSA); assay: adhesion of 51Cr-labelled GPVI-transduced FDC-P1 cells to immobilized BSA
[9] = molecular target: B1
[10] = molecular target: baboon GPVI on baboon platelets (baboon); assay: flow cytometry, washed baboon platelets; positive control
[11] = molecular target: T2, mouse collagen (type III) in descending aorta sections (mouse, UniProt P08121 155-1219, limits assumed); assay: immunofluorescence on mouse descending aorta sections, anti-human Fc detection
T2 construct: The target is tissue; also called mouse type III collagen; mouse aorta sections
T2 sequence (looked up): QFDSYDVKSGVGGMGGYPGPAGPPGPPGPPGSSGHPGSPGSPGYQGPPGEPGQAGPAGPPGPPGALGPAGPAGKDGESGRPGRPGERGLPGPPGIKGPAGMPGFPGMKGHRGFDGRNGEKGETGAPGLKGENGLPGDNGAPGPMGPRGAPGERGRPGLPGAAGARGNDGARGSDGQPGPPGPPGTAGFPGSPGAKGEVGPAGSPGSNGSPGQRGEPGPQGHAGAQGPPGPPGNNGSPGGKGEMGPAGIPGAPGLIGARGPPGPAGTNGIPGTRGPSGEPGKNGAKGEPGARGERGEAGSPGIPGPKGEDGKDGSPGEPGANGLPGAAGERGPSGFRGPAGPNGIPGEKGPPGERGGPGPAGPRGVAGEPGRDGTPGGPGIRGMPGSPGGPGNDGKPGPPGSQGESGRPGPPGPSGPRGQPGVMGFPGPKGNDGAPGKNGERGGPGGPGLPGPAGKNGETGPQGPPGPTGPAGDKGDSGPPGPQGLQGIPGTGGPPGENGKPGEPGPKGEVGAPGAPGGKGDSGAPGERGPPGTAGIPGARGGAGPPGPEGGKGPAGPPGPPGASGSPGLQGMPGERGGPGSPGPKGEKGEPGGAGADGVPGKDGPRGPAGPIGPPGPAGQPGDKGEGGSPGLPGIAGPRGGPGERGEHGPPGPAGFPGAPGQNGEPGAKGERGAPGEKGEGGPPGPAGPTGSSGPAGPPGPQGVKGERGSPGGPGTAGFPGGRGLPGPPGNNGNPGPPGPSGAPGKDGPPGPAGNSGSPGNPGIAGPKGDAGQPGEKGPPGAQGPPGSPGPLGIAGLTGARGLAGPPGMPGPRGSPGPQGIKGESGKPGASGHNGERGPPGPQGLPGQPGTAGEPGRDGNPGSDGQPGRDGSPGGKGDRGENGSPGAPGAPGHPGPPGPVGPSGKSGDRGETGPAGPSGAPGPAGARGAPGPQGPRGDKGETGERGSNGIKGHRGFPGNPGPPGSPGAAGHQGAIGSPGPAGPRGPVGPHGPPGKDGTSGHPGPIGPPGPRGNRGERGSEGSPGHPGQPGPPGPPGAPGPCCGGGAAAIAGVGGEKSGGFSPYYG
Procedure: The descending aorta was dissected and postfixed for 1.5 hours in the same fixative at room temperature. […] The descending aorta was then frozen in Tissue Tek OCT (Sakura, Tokyo, Japan). Frozen 12 micrometer cross sections of the descending aorta were cut using a cryostat (Microm, VWR, West Chester, Pa.) onto poly-1-Lysine (3 mg/ml; Sigma) coated Superfrost Plus microscope slides (VWR). Slides were stored at −80° C. until staining.
Slides containing descending aorta sections were placed at 37° C. for 6 minutes and then tissue sections were encircled with the hydrophobic substance contained in a PAP pen (RPI, Mount Prospect, Ill.). Slides were then washed 2 times for 7.5 minutes each in 0.1 M phosphate buffer, pH 6.9 (PB). Sections were then incubated for 1 hour at room temperature in a pool of solution, bordered by the hydrophobic markings, containing a 1:50 dilution of normal donkey serum (Jackson ImmunoResearch Laboratories, Inc., West Grove, Pa.) diluted with PBX. PBX is made by adding 300 microliters of Triton X-100 (Sigma) to 100 ml of 0.1M PB. Slides were than washed three times for 10 minutes each in 0.1M PB. […] Slides were then washed three times for 10 minutes each in 0.1M PB. […] Finally, slides were coverslipped using Vectashield (Vector Laboratories, Burlingame, Calif.) and the sites of GPVI binding to mouse descending aorta sections was observed using a fluorescence microscope.

recombinant human soluble GPVI:Fc fusion protein (rhusGPVI:Fc) (from UniProt Q9HCN6 21-269)
concentration of rhusGPVI:Fc needed for inhibition, against that needed for Cvx [1]: 10 fold

monoclonal antibody 7H14.1 (negative control)
Human fluorescence intensity [2]: 7
Human platelets % positive [2]: 1.4%
Baboon fluorescence intensity [3]: 9
Baboon platelets % positive [3]: 6.8%

monoclonal antibody 7120.2 (negative control)
Kd [4]: 210 nM
Human fluorescence intensity [2]: 7
Human platelets % positive [2]: 1.6%
Baboon fluorescence intensity [3]: 10
Baboon platelets % positive [3]: 9%

B1
binding result [5]: no binding
binding result [6]: binds

B2: mouse TANGO 268 (murine GPVI) (receptor)
chain: QSGPLPKPSLQAQPSSLVPLGQSVILRCQGPPDVDLYRLEKLKPEKYEDQDFLFIPTMERSNAGRYRCSYQNGSHWSLPSDQLELIATGVYAKPSLSAHPSSAVPQGRDVTLKCQSPYSFDEFVLYKEGDTGPYKRPEKWYRANFPIITVTAAHSGTYRCYSFSSSSPYLWSAPSDPLVLVVTGLSATPSQVPTEESFPVTESSRRPSILPTNKISTTEKPMNITASPEGLSPPIGFAHQHYAKGNLVRICLGATIIIILLGLLAEDWHSRKKCLQHRMRALQRPLPPLPLA
notes: Full-length protein on retrovirally transduced FDC-P1, 32D and Ba/F3 cells; Signal peptide 1-21 is a SIGNALP prediction; also called mGPVI; rmGPVI
binding result [7]: binds
binding result [8]: no binding

B3
IC50 [9]: 4 nM
Baboon fluorescence intensity [10]: 72
Baboon platelets % positive [10]: 95%

B4: human neurotactin conjugated to human Fc (Fc fusion, UniProt P78423 25-341, looked up)
chain: QHHGVTKCNITCSKMTSKIPVALLIHYQQNQASCGKRAIILETRQHRLFCADPKEQWVKDAMQHLDRQAAALTRNGGTFEKQIGEVKPRTTPAAGGMDESVVLEPEATGESSSLEPTPSSQEAQRALGTSPELPTGVTGSSGTRLPPTPKAQDGGPVGTELFRVPPVSTAATWQSSAPHQPGPSLWAEAKTSEAPSTQDPSTQASTASSPAPEENAPSEGQRVWGQGQSPRPENSLEREEMGPVPAHTDAFQDWGPGSMAHVSVVPVSSEGTPSREPVASGSWTPKAEEPIHATMDPQRLGVLITPVPDAQAATRRQ
notes: Negative-control Fc fusion; not shown: human Fc
binding result [11]: no binding
